Data as given in the supplement of paper PMC10567573.

B1: ZNF511 (parent)
chain: FDALDDYEHHYHTLHGNVCSFCKR
B2: VENTX (parent)
chain: VFQHHQYLSPLERKRLAREMQLSE

Variants of: B1
Assay: protein stability index of a GFP-peptide fusion (GPS, HEK-293T) (PSI 1-6); higher = more stable
Settings: c terminus: a fixed tail appended
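Note: lentivirally expressed fusions sorted by FACS into six bins by GFP to DsRed ratio, PSI derived from sequencing read proportions per bin multiplied by bin number.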

Compared with FDALDDYEHHYHTLHGNVCSFVKR, FDALDDYEHHYHTLHGNVCSFSKR is higher in protein stability index: 3.04 for the first, 3.31 for the second.

First: FDALDDYEHHYHTLHGNVCSFWKR
Second: FDALDDYEHHYHTLHGNVCSFQKR
The protein stability index of the first is lower: 1.96 for the first, 3.15 for the second.

First: FDALDDYEHHYHTLHGNVCSFYKR
Second: FDALDDYEHHYHTLHGNVCSFRKR
The protein stability index of the first is lower: 2.39 for the first, 2.73 for the second.

Going from FDALDDYEHHYHTLHGNVCSFTKR to FDALDDYEHHYHTLHGNVCSFCQR, the protein stability index rises from 2.59 to 3.71.

Going from FDALDDYEHHYHTLHGNVCSFCYR to FDALDDYEHHYHTLHGNVCSFCER, the protein stability index rises from 2.59 to 3.97.

First: FDALDDYEHHYHTLHGNVCSFCMR
Second: FDALDDYEHHYHTLHGNVCSFCGR
The protein stability index of the first is lower: 3.92 for the first, 4.15 for the second.

Going from FDALDDYEHHYHTLHGNVCSFCRR to FDALDDYEHHYHTLHGNVCSFCNR, the protein stability index falls from 4.04 to 3.96.

Compared with FDALDDYEHHYHTLHGNVCSFCAR, FDALDDYEHHYHTLHGNVCSFCFR is lower in protein stability index: 3.47 for the first, 2.67 for the second.

Going from FDALDDYEHHYHTLHGNVCSFCHR to FDALDDYEHHYHTLHGNVCSFCPR, the protein stability index falls from 3.07 to 3.

First: FDALDDYEHHYHTLHGNVCSFCCR
Second: FDALDDYEHHYHTLHGNVCSFCIR
The protein stability index of the first is higher: 3.25 for the first, 2.89 for the second.

Going from FDALDDYEHHYHTLHGNVCSFCVR to FDALDDYEHHYHTLHGNVCSFCWR, the protein stability index falls from 3.28 to 1.93.

First: FDALDDYEHHYHTLHGNVCSFCLR
Second: FDALDDYEHHYHTLHGNVCSFCTR
The protein stability index of the first is lower: 3.03 for the first, 3.25 for the second.

Compared with FDALDDYEHHYHTLHGNVCSFCDR, FDALDDYEHHYHTLHGNVCSFCSR is higher in protein stability index: 3.45 for the first, 3.6 for the second.

First: FDALDDYEHHYHTLHGNVCSFCKP
Second: FDALDDYEHHYHTLHGNVCSFCKK
The protein stability index of the first is lower: 3.17 for the first, 4.25 for the second.

Going from FDALDDYEHHYHTLHGNVCSFCKV to FDALDDYEHHYHTLHGNVCSFCKL, the protein stability index rises from 3.1 to 3.35.

Going from FDALDDYEHHYHTLHGNVCSFCKF to FDALDDYEHHYHTLHGNVCSFCKW, the protein stability index rises from 2.13 to 2.95.

First: FDALDDYEHHYHTLHGNVCSFCKG
Second: FDALDDYEHHYHTLHGNVCSFCKS
The protein stability index of the first is higher: 4.01 for the first, 3.8 for the second.

Compared with FDALDDYEHHYHTLHGNVCSFCKN, FDALDDYEHHYHTLHGNVCSFCKY is lower in protein stability index: 4.02 for the first, 2.88 for the second.

Going from FDALDDYEHHYHTLHGNVCSFCKC to FDALDDYEHHYHTLHGNVCSFCKQ, the protein stability index rises from 3.58 to 4.25.

Going from FDALDDYEHHYHTLHGNVCSFCKH to FDALDDYEHHYHTLHGNVCSFCKI, the protein stability index falls from 3.79 to 3.08.

First: FDALDDYEHHYHTLHGNVCSFCKE
Second: FDALDDYEHHYHTLHGNVCSFCKM
The protein stability index of the first is higher: 4.25 for the first, 3.6 for the second.

First: FDALDDYEHHYHTLHGNVCSFCKD
Second: FDALDDYEHHYHTLHGNVCSFCKA
The protein stability index of the first is higher: 4.06 for the first, 3.58 for the second.

Variant FDALDDYEHHYHTLHGNVCSFCKT has a protein stability index of 3.84.

Variants of: B2
Assay: as above
Settings: c terminus: a fixed tail appended

Going from VEQHHQYLSPLERKRLAREMQLSE to VLQHHQYLSPLERKRLAREMQLSE, the protein stability index falls from 4.48 to 3.22.

Going from VRQHHQYLSPLERKRLAREMQLSE to VGQHHQYLSPLERKRLAREMQLSE, the protein stability index rises from 3.02 to 3.57.

Going from VPQHHQYLSPLERKRLAREMQLSE to VNQHHQYLSPLERKRLAREMQLSE, the protein stability index falls from 4.18 to 2.97.

Compared with VSQHHQYLSPLERKRLAREMQLSE, VHQHHQYLSPLERKRLAREMQLSE is lower in protein stability index: 3.91 for the first, 3.38 for the second.

Going from VVQHHQYLSPLERKRLAREMQLSE to VQQHHQYLSPLERKRLAREMQLSE, the protein stability index rises from 2.55 to 4.

Going from VAQHHQYLSPLERKRLAREMQLSE to VDQHHQYLSPLERKRLAREMQLSE, the protein stability index rises from 2.11 to 4.44.

Going from VCQHHQYLSPLERKRLAREMQLSE to VMQHHQYLSPLERKRLAREMQLSE, the protein stability index rises from 3.08 to 3.1.

Going from VYQHHQYLSPLERKRLAREMQLSE to VIQHHQYLSPLERKRLAREMQLSE, the protein stability index rises from 3.01 to 3.12.

Going from VKQHHQYLSPLERKRLAREMQLSE to VTQHHQYLSPLERKRLAREMQLSE, the protein stability index falls from 3.61 to 3.05.

Going from VWQHHQYLSPLERKRLAREMQLSE to VFQHHQYKSPLERKRLAREMQLSE, the protein stability index rises from 2.42 to 3.6.

Going from VFQHHQYISPLERKRLAREMQLSE to VFQHHQYESPLERKRLAREMQLSE, the protein stability index rises from 3.02 to 3.66.

Going from VFQHHQYDSPLERKRLAREMQLSE to VFQHHQYMSPLERKRLAREMQLSE, the protein stability index falls from 3.31 to 2.55.

Compared with VFQHHQYFSPLERKRLAREMQLSE, VFQHHQYCSPLERKRLAREMQLSE is lower in protein stability index: 2.62 for the first, 2.22 for the second.

First: VFQHHQYGSPLERKRLAREMQLSE
Second: VFQHHQYASPLERKRLAREMQLSE
The protein stability index of the first is lower: 2.42 for the first, 2.65 for the second.

Compared with VFQHHQYHSPLERKRLAREMQLSE, VFQHHQFLSPLERKRLAREMQLSE is higher in protein stability index: 2.75 for the first, 2.99 for the second.

Compared with VFQHHQHLSPLERKRLAREMQLSE, VFQHHQILSPLERKRLAREMQLSE is higher in protein stability index: 2.33 for the first, 2.54 for the second.

Going from VFQHHQSLSPLERKRLAREMQLSE to VFQHHQQLSPLERKRLAREMQLSE, the protein stability index rises from 2.68 to 3.27.

Compared with VFQHHQALSPLERKRLAREMQLSE, VFQHHQDLSPLERKRLAREMQLSE is higher in protein stability index: 2.98 for the first, 3.84 for the second.

Going from VFQHHQCLSPLERKRLAREMQLSE to VFQHHQPLSPLERKRLAREMQLSE, the protein stability index rises from 2.5 to 3.33.

Going from VFQHHQRLSPLERKRLAREMQLSE to VFQHHQMLSPLERKRLAREMQLSE, the protein stability index rises from 2.42 to 3.04.

Going from VFQHHQELSPLERKRLAREMQLSE to VFQHHQLLSPLERKRLAREMQLSE, the protein stability index falls from 3.22 to 2.5.

First: VFQHHQNLSPLERKRLAREMQLSE
Second: VFQHHQVLSPLERKRLAREMQLSE
The protein stability index of the first is lower: 2.36 for the first, 3.48 for the second.

Compared with VFQHHQTLSPLERKRLAREMQLSE, VFQHHQKLSPLERKRLAREMQLSE is lower in protein stability index: 3.49 for the first, 2.71 for the second.

Compared with VFQHHQWLSPLERKRLAREMQLSE, VFQHHQGLSPLERKRLAREMQLSE is higher in protein stability index: 2.11 for the first, 2.34 for the second.

LFQHHQYLSPLERKRLAREMQLSE gave a protein stability index of 3.38.
